# Test results as given in patent publication US20210070881A1 (DENALI THERAPEUTICS, published 2021).
# Substitutions are numbered along the chain they refer to.
# B1: 2E1 (antibody, human IgG1, V domains shown)
# VH: EVQLQQPGTELVRPGTSVKLSCKASGYTFTNFWMHWVKQRPGQGLEWIGVINPSDTYTKFNQKFRGKATLTVDTSSSTAYMQLSSLTSEDSAVYFCARPTVGLDYWGQGTSVTVSS
# VL: DIVMTQSQKFMPTSVGDRVSVTCKASQNVGSNVAWYQQKSGQSPKALIYSASHRYSGVPDRFTGSGSGTDFTLTISNVQSEDLAEYFCQQYNSYPYTFGGGTKLEIK
# notes: chimeric, human IgG1/kappa; also called Clone 2E1
# B2: 3C11 (antibody, human IgG1, V domains shown)
# VH: EVQLQQSGADLMKPGASVKLSCKATGYTFTGYWIEWVKQRPGHGLEWIGEIFPGSVSTNYNEKFKGKATFTADTSSNTAYMQLSSLTTEDSAIYYCARSPIYYDYADYWGQGTTLTVSS
# VL: DIVLSQSHKFMSTSVGDRVSITCKASQDVGTAVAWYQQKPGQSPKALIYLASNRHTGVPDRFTGSGSGTDFTLTISNVQSEDLAEYFCQQYNSYPYTFGGGTRLEIK
# notes: chimeric, human IgG1/kappa; also called Clone 3C11
# B3: 4H10 (antibody, human IgG1, V domains shown)
# VH: EIQLQQSGPELKKPGETVKISCKTSGYTFTTYGMTWVKQAPGKGLKWMGWINTYSGVPIYADDFKGRSAFSLETSASTAYLQINNLENEDTATYFCARRGSTAHYFDYWGQGTTVTVSS
# VL: DIVLTQSHKFMSTSVGDRVSITCKASQDVSTAVAWYQQKPGQSPKLLIYWASTRHTGVPDRFTGSGSGTDYTLTISSVQAEDLALYYCQQHYSTPYTFGGGTKLELK
# notes: chimeric, human IgG1/kappa; also called Clone 4H10
# B4: 1F1 (antibody, human IgG1, V domains shown)
# VH: EVQLQQSGAELMKPGASVKLSCKATGYTFIGYWIDWVKQRPGHGLEWIGEILPGGGSTNHNEKFKGKATFTTDTSSNTVYMQLSSLTTEDSAIYYCAREGSYGNYYFDYWGQGTSVTVSS
# VL: DIQMTQTPLSLPVSLGDQASISCRSSQSIVHSNGNTYLEWYLQKPGQSPKLLIYKVSNRFSGVPDRFSGSGSGTDFTLKISRVEAEDLGVYYCFQGSHVPYTFGGGTKLEIK
# notes: chimeric, human IgG1/kappa; also called Clone 1F1
# B5: 4A4 (antibody, human IgG1, V domains shown)
# VH: EVKLMESGPGLVAPSQSLSITCTVSGFSLTSYPINWVRQPPGKGLEWLGVIWTGGSTNYNSALKSRLSISRDNSKSQVFLKMNSLQTDDTARYYCARWDGYFGAFDYWGQGTTVTVSS
# VL: DIVMTQTTSSLSASLGDRVTISCRASQDISKYLNWYQQKPDGTVKLLIYYTSRLHSGVPSRFSGSGSGTDYSLTISNLEQEDIATYFCQQSLSLPYTFGGGTRLEIK
# notes: chimeric, human IgG1/kappa; also called Clone 4A4
# B6: 1D7 (antibody, human IgG1, V domains shown)
# VH: EVKLMESGPGLVAPSQSLSISCTVSGFSLTSYGVDWVRQPPGKGLEWLGVVWGGGSTNYNSALMSRLSISKDNSKSQVFLKMNSLQTDDTAMYYCAKRDYFGGLNVWGTGTTVTVSS
# VL: B5 VL with S10P, A13V, K39R, Q89H, S91G, L92H, S93K, L94I, R103K, I106L
# notes: chimeric, human IgG1/kappa; also called Clone 1D7
# B7: 1D2 (antibody, human IgG1, V domains shown)
# VH: EVHVKQSGPELKKPGETVTISCKASGYTFTTYGMTWVRQAPGKDLEWMGWINTHSGVPIYADDFKGRFAFSLETSAGTAYLQINNLKNEDTATYFCTRRGRLGHYFDYWGQGTSVTVSS
# VL: DIVMTQSQKFMSTSVGDRVSVTCKASQNVGTNVAWYQQKPGQSPKLLIYWASTRHTGVPDRFTGSGSGTDFTLTISNVQSEDLADYFCQQYSSYPYTFGGGTKLELK
# notes: chimeric, human IgG1/kappa; also called Clone 1D2
# B8: hu2H8v29.1 (antibody, V domains shown)
# VH: QVQLVQSGAEVKKPGASVKVSCKASGYTFTNFWIHWVRQAPGQGLEWMGMIDPSDSYTKYNQKFKARATLTVDTSTSTVYMELSSLRSEDTAVYYCARSGVAFPYWGQGTLVTVSS
# VL: DIQMTQSPSSLSASVGDRVTITCKASQDVGRNVAWYQQKPGKSPKSLIYSASHYYSGVPSRFSGSGSGTDFTLTISSLQPEDFATYFCQQYNSYPYTFGQGTKVEIK
# notes: captured via human Fc; also called hu2H8_HC6 + hu2H8_LC5.1
# B9: hu2H8v29.3 (antibody, V domains shown)
# VH: B8 VH
# VL: B8 VL with Y54M
# notes: captured via human Fc; also called hu2H8_HC6 + hu2H8_LC5.3
# B10: hu2H8v29.20 (antibody, V domains shown)
# VH: B8 VH with S56A
# VL: B8 VL with Y54R
# notes: captured via human Fc; also called hu2H8_LC5 + hu2H8_HC6.9
# B11: hu2H8v29.24 (antibody, V domains shown)
# VH: B8 VH with V101A, A102S, F103L
# VL: B8 VL with Y54R
# notes: captured via human Fc; also called hu2H8_LC5 + hu2H8_HC6.13
# B12: hu2H8v29.23 (antibody, V domains shown)
# VH: B8 VH with A102S, F103L
# VL: B8 VL with Y54R
# notes: captured via human Fc; also called hu2H8_LC5 + hu2H8_HC6.12
# B13: hu2H8v29.18 (antibody, V domains shown)
# VH: B8 VH with D55E
# VL: B8 VL with Y54R
# notes: captured via human Fc; also called hu2H8_LC5 + hu2H8_HC6.7
# B14: hu2H8v29.16 (antibody, V domains shown)
# VH: B8 VH with M50I
# VL: B8 VL with Y54R
# notes: captured via human Fc; also called hu2H8_LC5 + hu2H8_HC6.5
# B15: hu2H8v29.27 (antibody, V domains shown)
# VH: B8 VH with D55S, V101A, A102S, F103L
# VL: B8 VL with N92Y
# notes: captured via human Fc; also called hu2H8_LC5.12 + hu2H8_HC6.16
# B16: hu2H8v29.17 (antibody, V domains shown)
# VH: B8 VH with D55S
# VL: B8 VL with Y54R
# notes: captured via human Fc; also called hu2H8_LC5 + hu2H8_HC6.6
# B17: hu2H8v29.26 (antibody, V domains shown)
# VH: B8 VH with V101G, F103L
# VL: B8 VL with Y54R
# notes: captured via human Fc; also called hu2H8_LC5 + hu2H8_HC6.15
# B18: hu2H8v29.25 (antibody, V domains shown)
# VH: B8 VH with V101A, F103L
# VL: B8 VL with Y54R
# notes: captured via human Fc; also called hu2H8_LC5 + hu2H8_HC6.14
# B19: hu2H8v29.21 (antibody, V domains shown)
# VH: B8 VH with F103L
# VL: B8 VL with Y54R
# notes: captured via human Fc; also called hu2H8_LC5 + hu2H8_HC6.10
# B20: hu2H8v29.28 (antibody, V domains shown)
# VH: B8 VH with S54D, D55S, V101A, A102S, F103L
# VL: B8 VL with N92Y
# notes: captured via human Fc; also called hu2H8_LC5.12 + hu2H8_HC6.17
# B21: hu2H8v29.2 (antibody, V domains shown)
# VH: B8 VH
# VL: B8 VL with Y54N
# notes: captured via human Fc; also called hu2H8_HC6 + hu2H8_LC5.2
# B22: hu2H8v29.14 (antibody, V domains shown)
# VH: B8 VH with T30N, N31S, F32Y
# VL: B8 VL with Y54R
# notes: captured via human Fc; also called hu2H8_LC5 + hu2H8_HC6.3
# B23: hu2H8v29.19 (antibody, V domains shown)
# VH: B8 VH with D55G
# VL: B8 VL with Y54R
# notes: captured via human Fc; also called hu2H8_LC5 + hu2H8_HC6.8
# B24: hu2H8v29.13 (antibody, V domains shown)
# VH: B8 VH with F32Y
# VL: B8 VL with Y54R
# notes: captured via human Fc; also called hu2H8_LC5 + hu2H8_HC6.2
# B25: hu2H8v29.22 (antibody, V domains shown)
# VH: B8 VH with F103L, Y105S
# VL: B8 VL with Y54R
# notes: captured via human Fc; also called hu2H8_LC5 + hu2H8_HC6.11
# B26: hu2H8v29.5 (antibody, V domains shown)
# VH: B8 VH
# VL: B8 VL with Y54K
# notes: captured via human Fc; also called hu2H8_HC6 + hu2H8_LC5.5
# B27: hu2H8v29.6 (antibody, V domains shown)
# VH: B8 VH
# VL: B8 VL with Y54L
# notes: captured via human Fc; also called hu2H8_HC6 + hu2H8_LC5.6
# B28: hu2H8v29.15 (antibody, V domains shown)
# VH: B8 VH with W33Y
# VL: B8 VL with Y54R
# notes: captured via human Fc; also called hu2H8_LC5 + hu2H8_HC6.4
# B29: hu2H8v29.4 (antibody, V domains shown)
# VH: B8 VH
# VL: B8 VL with Y54Q
# notes: captured via human Fc; also called hu2H8_HC6 + hu2H8_LC5.4
# Legend:
# [1] = target: cellular BACE1 in CHOK1-huAPP cells; test: cell-based or functional assay
# [2] = target: T1, recombinant BACE1 (BACE1 extracellular domain, R&D Systems Cat#931-AS) (UniProt P56817 22-457); test: SPR Biacore T200, IgG captured, BACE1 analyte
# T1 construct: extracellular domain; also called BACE1 extracellular domain protein
# Procedure: The affinity of chimeric IgG antibodies for recombinant BACE1 was determined by surface plasmon resonance using a Biacore™ T200 instrument. Biacore™ Series S CMS sensor chips were immobilized with monoclonal mouse anti-human IgG (Fc) antibody (e.g., using a human antibody capture kit from GE Healthcare). 1 μg/mL of antibody was captured for 1 minute on each flow cell and serial 3-fold dilutions of recombinant BACE1 were injected at a flow rate of 30 μL/min. Each sample was analyzed with a 3-minute association and a 10-minute dissociation. After each injection, the chip was regenerated using 3M MgCl₂. Binding response was corrected by subtracting the RU from a flow cell capturing an irrelevant IgG at similar density. A 1:1 Langmuir model of simultaneous fitting of kₒₙ and koff was used for analysis of kinetics.
# [3] = target: T1, recombinant BACE1 (BACE1 extracellular …); test: SPR Biacore 8K, antibody captured, BACE1 analyte
# Procedure: (§1) The binding affinities of the affinity matured humanized 2H8 variants for BACE1 were determined by surface plasmon resonance using a Biacore™ 8K instrument. […] The binding was monitored for 300 seconds and then dissociation was monitored for 600+ seconds in HBS-EP+ running buffer (GE Healthcare Life Sciences, BR100669). Binding response was corrected by subtracting the RU from a blank flow cell. A 1:1 Langmuir model of simultaneous fitting of kₒₙ and koff was used for kinetics analysis.
# [4] = target: T1, recombinant BACE1 (BACE1 extracellular …); test: SPR Biacore 8K, antibody captured, BACE1 analyte; remark: listed apart in the source
# Procedure: as §1
# T1 sequence (P56817 22-457): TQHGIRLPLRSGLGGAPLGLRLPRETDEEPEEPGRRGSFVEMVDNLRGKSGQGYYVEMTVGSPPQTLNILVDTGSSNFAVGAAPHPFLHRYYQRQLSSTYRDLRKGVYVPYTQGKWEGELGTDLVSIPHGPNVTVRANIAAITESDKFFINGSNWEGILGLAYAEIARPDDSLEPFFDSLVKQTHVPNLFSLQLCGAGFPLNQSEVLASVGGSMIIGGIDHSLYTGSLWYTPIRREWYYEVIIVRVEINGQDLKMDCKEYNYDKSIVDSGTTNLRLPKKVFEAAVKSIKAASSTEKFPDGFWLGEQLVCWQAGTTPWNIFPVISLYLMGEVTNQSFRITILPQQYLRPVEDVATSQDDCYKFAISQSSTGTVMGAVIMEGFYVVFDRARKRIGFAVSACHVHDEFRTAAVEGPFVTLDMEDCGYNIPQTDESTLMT
binder,measurement,setting,value
B1,% Max Inhibition,[1],63%
same,Cellular IC50,[1],34 nM
same,Kd,[2],71 nM
same,koff,[2],0.0013 s⁻¹
same,kon,[2],18000 M⁻¹ s⁻¹
B2,% Max Inhibition,[1],56%
same,Cellular IC50,[1],36 nM
same,Kd,[2],61 nM
same,koff,[2],0.0013 s⁻¹
same,kon,[2],21000 M⁻¹ s⁻¹
B3,% Max Inhibition,[1],46%
same,Cellular IC50,[1],18 nM
same,Kd,[2],23 nM
same,koff,[2],0.0022 s⁻¹
same,kon,[2],96000 M⁻¹ s⁻¹
B4,% Max Inhibition,[1],63%
same,Cellular IC50,[1],11 nM
same,Kd,[2],5 nM
same,koff,[2],0.00024 s⁻¹
same,kon,[2],49000 M⁻¹ s⁻¹
B5,% Max Inhibition,[1],53%
same,Cellular IC50,[1],17 nM
same,Kd,[2],15 nM
same,koff,[2],0.0012 s⁻¹
same,kon,[2],83000 M⁻¹ s⁻¹
B6,% Max Inhibition,[1],55%
same,Cellular IC50,[1],4 nM
same,Kd,[2],16 nM
same,koff,[2],0.00095 s⁻¹
same,kon,[2],59000 M⁻¹ s⁻¹
B7,% Max Inhibition,[1],47%
same,Cellular IC50,[1],4 nM
same,Kd,[2],3.1 nM
same,koff,[2],0.00024 s⁻¹
same,kon,[2],78000 M⁻¹ s⁻¹
B8,Kd,[3],7.22 nM
B9,Kd,[3],6.93 nM
B10,Kd,[4],8.69 nM
B11,Kd,[4],5.73 nM
B12,Kd,[4],7 nM
B13,Kd,[4],10.3 nM
B14,Kd,[4],31.3 nM
B15,Kd,[4],3.4 nM
B16,Kd,[4],8.04 nM
B17,Kd,[4],8.52 nM
B18,Kd,[4],6.08 nM
B19,Kd,[4],6.68 nM
B20,Kd,[4],4.8 nM
B21,Kd,[3],8.16 nM
B22,Kd,[4],9.32 nM
B23,Kd,[4],9.95 nM
B24,Kd,[4],9.16 nM
B25,Kd,[4],6 nM
B26,Kd,[3],8.21 nM
B27,Kd,[3],7.51 nM
B28,Kd,[4],19.2 nM
B29,Kd,[3],6.53 nM
